# Assay results published in the supplement of paper PMC12764529.
# ± gives the half width of the 95% confidence interval.
# Experiment: folding stability dG unfold from trypsin proteolysis; higher = more stable
# Summary of the method: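 How resistant each design was to proteolysis was captured as K50, inferred by Bayesian fitting of sequencing counts. Unfolding free energy was then derived relative to a sequence-predicted unfolded-state K50 and a shared folded-state K50, per protease or combined. Digestion used trypsin and chymotrypsin at 11 threefold-diluted concentrations plus a no-protease condition, on mini-proteins under 80 residues without cysteine in a PA-tagged cDNA display construct. Designs were kept only when AlphaFold2 dimer inter-PAE was above 15.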
row,Sequence,folding stability dG unfold
1,SAGGSAGGSMTLKVTLPNGKVIELPLPEELENIPAETIAKLLGEENVRLELYSPDGVPYDFGASAGGSAGGS [r12_411_TrMRF],1.18 ± 0.029 kcal/mol
2,SAGGSAEQTATIESVEYNEETGELTIRIRLENGEEVEITVKPDGTITITLPPGAKITEIEIERLPPSAGGSA [r15_959_TrROS_Hall],1.91 ± 0.15 kcal/mol
3,SAGTIRGLPAEFAKRIANELAQNGYEIVAVTVTYDPPNGTFKIEVEMRPPNGKVREHDIEIQVRLPPDDSAG [r5_985_TrROS],1.72 ± 0.057 kcal/mol
4,SAGGSAGGSVYSAKSPDGYTITISNGGKPITLPVSDPAKAASLTLKTPDGKTATVTIVPASLASAGGSAGGS [r12_730_JUSTAS],-0.229 ± 0.12 kcal/mol
5,SAGWQTIDFPIPPGEDIPIPIGNRPLRIQVDPNKNKYEIFNPFLGYRISIDVDPGAGWIKITIEPLKPPSAG [r5_302_TrROS],3.34 ± 0.13 kcal/mol
6,SAGGSAEKKVLKVKVEVVSVEVNEDGTVTVTAKVTFEDGLELTVTVTFDKETGELTIEVELRPLPPSAGGSA [r15_401_TrROS_Hall],2.42 ± 0.22 kcal/mol
7,SAGGMKTFEKPMTAEEVMALLEEIAKKGNVNVTIETEGKTYEVDPSKAKPIPPENVTAKITITELPKSAGGS [r16_628_JUSTAS],-0.051 ± 0.15 kcal/mol
8,SAGGSSIKIPNPNGYEIEIEVTPDRAKIKWRMPGKEQEQEFPPGEDVTIRFPDGMPLTIKIPPPGESAGGSA [r2_57_TrROS],0.456 ± 0.089 kcal/mol
9,SAGGSAGGSAGGATAEELAAALKELEAKLKALLEKPEEVEVEVEVKAPEVEEVDGKLVLLSAGGSAGGSAGG [r7_44_TrROS_Hall],0.651 ± 0.041 kcal/mol
10,SAGKPIDLGEVEVEISPVSYDPETGKLTYQARLVTKDGKPIYTASVTYDPKTGKFSISVTPIGYDPSAFSAG [r5_200_TrMRF],2.26 ± 0.057 kcal/mol
11,SAGGSAGGKNWRTIPFMIWIPPGAPPIEFEIPLPDGWKVEIEISVVRNPDGWYFIMFSITVQPDSAGGSAGG [r6_510_TrROS],3.12 ± 0.28 kcal/mol
12,SAGGSAGGGRYLVLIEFENGFPLAYVFPSPEDVVEHTRLLEERLGYPIKRIEVYKIDPNGKAYASAGGSAGG [r6_162_TrMRF],2.41 ± 0.053 kcal/mol
13,SEDTVTIEVRAFPVKDKNGKPRFYVSIEFGNGPVSYPIPGLPEGMKEGETFTIEIPPENIKKVDISIMPYSA [r9_769_TrROS],2.09 ± 0.12 kcal/mol
14,SAGGKKIVLFVGPPELVEELKKAYPDLPFVPIPVEVLENPEPAAEIIKELKEKGYEVVVYNFPDLKESAGGS [r8_376_TrMRF],1.37 ± 0.057 kcal/mol
15,SNNKRITIEIPFPMPAEQARNFMEAFGIKKIEYEKHDDPGYYRVKYTVPDDNVTIDIHIFPPPVPPGQKPSA [r9_1090_TrROS],1.23 ± 0.024 kcal/mol
16,SLTAEEAAANPELAARLLALPPVPPFPVELLFVNPETRAVLPAKATVYQFPNTWLVLFPENGAALPVPGGSA [r9_548_TrMRF],0.71 ± 0.14 kcal/mol

row,Sequence,folding stability dG unfold
1,SAGLEVVKKLAEELGFPVEILRVEYDPETGELTFEAVARPKDGKTRRVRIRIRVPKESDEVEIELEYFDSAG [r5_929_TrMRF],4.67 ± 0.11 kcal/mol
2,SAGGSAGGSAGDGINFTLDIPIEGDFELRDVYLTPLEPENRRAFFLLRYKDGPVLLTLPLSAGGSAGGSAGG [r11_1013_TrMRF],1.21 ± 0.12 kcal/mol
3,SAGGSGMSFSITEEVVIPTPGPRTLLLLKTEGDIIIVERDGERLRPVKTVPRKEVPEEPEKLIEELSAGGSA [r2_133_JUSTAS],-1.07 ± 0.34 kcal/mol
4,SAGGSAGGSWEWITAEEALKRAREENPPGKPIEFHFEDPWYFTVRFDGEDPNDVTIEWVPLEKSAGGSAGGS [r12_648_TrROS],1.39 ± 0.087 kcal/mol
5,SAGGSAGGMVTSSVSALPDGSYRLTITYPDGTVLTFEFDSEEEVAALLAELAEALPADAAVPLASAGGSAGG [r6_464_JUSTAS],1.64 ± 0.059 kcal/mol
6,SAGGGRPILFRPPDGSVEVVPVPADATLEEVKEVAEAAAAARGYTELSFDPATETVTIDLGGDRVEAASAGG [r13_572_JUSTAS],-1.46 ± 0.47 kcal/mol
7,SAGGSAGGSAGGEKIVLKVKPGDTVEVNGKTIKVPPGALITFDKKTKKLTIEPLSPEDLSAGGSAGGSAGGS [r10_353_TrROS_Hall],0.954 ± 0.058 kcal/mol
8,SAGGMQALLRLPDTDEVVVLPDELLEAIASGDPERLAALPPEVREVISNVAELVVVPPPDGDPRPEGGSAGG [r13_233_TrMRF],0.419 ± 0.032 kcal/mol
9,SAGGSAGGSAGMTIEELKAKGYKVEVVKLPDSPEEVVVVTYPVPPGGIEKSVIPLSEVKLSAGGSAGGSAGG [r17_311_JUSTAS],-0.00127 ± 0.025 kcal/mol
10,SAGGKIKIRNPKTGLIVEVLEYNPETGKFKVKVTFPDGSVEEKEFPGSLEDLIEWLESEGFPFEVEGSAGGS [r16_748_TrMRF],2.26 ± 0.13 kcal/mol
11,SAGGSSMKTSETTDPANGTPVRVETSIDPATNKVTTTVTTPDGTTVGSGTITIPPESSVTTTTTTTTPASAG [r5_747_JUSTAS],0.793 ± 0.079 kcal/mol
12,SAGGSPEVKVLLFYDPATGERVVVVVTYDPATGEKKVLVFVESRPELVELVKKLLEDLGYEVEVVPSAGGSA [r2_30_TrMRF],3.39 ± 0.19 kcal/mol
13,MPARVEARRIPDEPRLEVVVDFPGYRVVVRVDEGGRVEVEVVWEENVGPEERAAAEEAAEAFAREVAEALGS [r1_468_TrMRF],0.401 ± 0.19 kcal/mol
14,SAGGMTITFTLEFDLEDDRRITVTATIDPTGDDVLITVRVELTLPNGEKLEFTATIVLPPGAHPDELISAGG [r13_3_TrMRF],4.15 ± 0.38 kcal/mol
15,SAGMVKTVTLSREEVEKLVRELGRSPEEMTLEEFAERLEELFPGATVTVTVDTKTGTYTITITFPPSLASAG [r5_264_JUSTAS],3.61 ± 0.25 kcal/mol
